Data on 1 molecule can be found in article PMC8329185 (2021).

For the test, the target named is His6-DNAJB1 (human, UniProt P25685 1-340). Put plainly: SPR.
His6-DNAJB1, sequence (P25685 whole entry): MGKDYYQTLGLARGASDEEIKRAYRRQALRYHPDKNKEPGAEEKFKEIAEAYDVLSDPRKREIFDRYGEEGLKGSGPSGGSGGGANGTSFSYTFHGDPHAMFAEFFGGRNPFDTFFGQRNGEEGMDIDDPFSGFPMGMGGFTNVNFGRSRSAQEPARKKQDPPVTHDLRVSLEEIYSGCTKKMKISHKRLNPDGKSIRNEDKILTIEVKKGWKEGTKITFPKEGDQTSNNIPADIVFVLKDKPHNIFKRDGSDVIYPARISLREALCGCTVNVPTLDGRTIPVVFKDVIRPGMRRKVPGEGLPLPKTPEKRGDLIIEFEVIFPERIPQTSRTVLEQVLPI

B1: GST-TrnSR (WT, without mCherry) (natural protein)
chain: MEGAKPTLQLVYQAVQALYHDPDPSGKERASFWLGELQRSVHAWEISDQLLQIRQDVESCYFAAQTMKMKIQTSFYELPTDSHASLRDSLLTHIQNLKDLSPVIVTQLALAIADLALQMPSWKGCVQTLVEKYSNDVTSLPFLLEILTVLPEEVHSRSLRIGANRRTEIIEDLAFYSSTVVSLLMTCVEKAGTDEKMLMKVFRCLGSWFNLGVLDSNFMANNKLLALLFEVLQQDKTSSNLHEAASDCVCSALYAIENVETNLPLAMQLFQGVLTLETAYHMAVAREDLDKVLNYCRIFTELCETFLEKIVCTPGQGLGDLRTLELLLICAGHPQYEVVEISFNFWYRLGEHLYKTNDEVIHGIFKAYIQRLLHALARHCQLEPDHEGVPEETDDFGEFRMRVSDLVKDLIFLIGSMECFAQLYSTLKEGNPPWEVTEAVLFIMAAIAKSVDPENNPTLVEVLEGVVRLPETVHTAVRYTSIELVGEMSEVVDRNPQFLDPVLGYLMKGLCEKPLASAAAKAIHNICSVCRDHMAQHFNGLLEIARSLDSFLLSPEAAVGLLKGTALVLARLPLDKITECLSELCSVQVMALKKLLSQEPSNGISSDPTVFLDRLAVIFRHTNPIVENGQTHPCQKVIQEIWPVLSETLNKHRADNRIVERCCRCLRFAVRCVGKGSAALLQPLVTQMVNVYHVHQHSCFLYLGSILVDEYGMEEGCRQGLLDMLQALCIPTFQLLEQQNGLQNHPDTVDDLFRLATRFIQRSPVTLLRSQVVIPILQWAIASTTLDHRDANCSVMRFLRDLIHTGVANDHEEDFELRKELIGQVMNQLGQQLVSQLLHTCCFCLPPYTLPDVAEVLWEIMQVDRPTFCRWLENSLKGLPKETTVGAVTVTHKQLTDFHKQVTSAEECKQVCWALRDFTRLFR
What is called koff is the rate constant with which the complex falls apart. A high value points to a short-lived complex. With B1, the koff worked out at 0.00014 s⁻¹.
